From article PMC5572259, “The C-terminal Six Amino Acids of the FNT Channel FocA Are Required for Formate Translocation But Not Homopentamer Integrity” (Frontiers in Microbiology, 2017) come the findings set out here.

Several values for one entry are separate records, joined by “and”; a condition that tells them apart may be missing. Identical values can stand only once.

The labels stand for the following.
B1: N-terminally Strep-tagged FocA (native, full-length formate channel FocA of Escherichia coli) (natural protein, UniProt P0AC23 1-285, looked up)
chain: MKADNPFDLLLPAAMAKVAEEAGVYKATKHPLKTFYLAITAGVFISIAFVFYITATTGTGTMPFGMAKLVGGICFSLGLILCVVCGADLFTSTVLIVVAKASGRITWGQLAKNWLNVYFGNLVGALLFVLLMWLSGEYMTANGQWGLNVLQTADHKVHHTFIEAVCLGILANLMVCLAVWMSYSGRSLMDKAFIMVLPVAMFVASGFEHSIANMFMIPMGIVIRDFASPEFWTAVGSAPENFSHLTVMNFITDNLIPVTIGNIIGGGLLVGLTYWVIYLRENDHH
notes: Formate channel FocA, Escherichia coli, full length (ends with H285; C-terminal residues after R280 are ENDHH); Kept in 2 mM DDM after purification; also called FocA5; native FocA5; source: E. coli BL21(DE3) with pfocA5 (pASK-IBA5focA), membrane fraction solubilised with DDM, purified (Strep-Tactin-Sepharose); not shown: Strep-tag II, N-terminal, kept
B2: FocA5E281 (FocA truncation variant ending with E281, lacking N282, D283, H284 and H285) (domain or fragment, Escherichia coli, UniProt P0AC23 1-281, looked up)
chain: MKADNPFDLLLPAAMAKVAEEAGVYKATKHPLKTFYLAITAGVFISIAFVFYITATTGTGTMPFGMAKLVGGICFSLGLILCVVCGADLFTSTVLIVVAKASGRITWGQLAKNWLNVYFGNLVGALLFVLLMWLSGEYMTANGQWGLNVLQTADHKVHHTFIEAVCLGILANLMVCLAVWMSYSGRSLMDKAFIMVLPVAMFVASGFEHSIANMFMIPMGIVIRDFASPEFWTAVGSAPENFSHLTVMNFITDNLIPVTIGNIIGGGLLVGLTYWVIYLRE
notes: source: E. coli BL21(DE3) with pfocA5E281, membrane fraction solubilised with DDM, purified (Strep-Tactin-Sepharose); not shown: Strep-tag II, N-terminal, kept
B3: FocA5D283 (FocA truncation variant ending with D283, lacking H284 and H285) (domain or fragment, Escherichia coli, UniProt P0AC23 1-283, looked up)
chain: MKADNPFDLLLPAAMAKVAEEAGVYKATKHPLKTFYLAITAGVFISIAFVFYITATTGTGTMPFGMAKLVGGICFSLGLILCVVCGADLFTSTVLIVVAKASGRITWGQLAKNWLNVYFGNLVGALLFVLLMWLSGEYMTANGQWGLNVLQTADHKVHHTFIEAVCLGILANLMVCLAVWMSYSGRSLMDKAFIMVLPVAMFVASGFEHSIANMFMIPMGIVIRDFASPEFWTAVGSAPENFSHLTVMNFITDNLIPVTIGNIIGGGLLVGLTYWVIYLREND
notes: source: E. coli BL21(DE3) with pfocA5D283, membrane fraction solubilised with DDM, purified (Strep-Tactin-Sepharose); not shown: Strep-tag II, N-terminal, kept
B4: FocA5N282 (FocA truncation variant ending with N282, lacking D283, H284 and H285) (domain or fragment, Escherichia coli, UniProt P0AC23 1-282, looked up)
chain: MKADNPFDLLLPAAMAKVAEEAGVYKATKHPLKTFYLAITAGVFISIAFVFYITATTGTGTMPFGMAKLVGGICFSLGLILCVVCGADLFTSTVLIVVAKASGRITWGQLAKNWLNVYFGNLVGALLFVLLMWLSGEYMTANGQWGLNVLQTADHKVHHTFIEAVCLGILANLMVCLAVWMSYSGRSLMDKAFIMVLPVAMFVASGFEHSIANMFMIPMGIVIRDFASPEFWTAVGSAPENFSHLTVMNFITDNLIPVTIGNIIGGGLLVGLTYWVIYLREN
notes: FocA, Escherichia coli, stop codon at codon 283 (lacking D283, H284 and H285); source: E. coli BL21(DE3) with pfocA5N282, membrane fraction solubilised with DDM, purified (Strep-Tactin-Sepharose); not shown: Strep-tag II, N-terminal, kept
B5: FocA5H284 (FocA truncation variant ending with H284, lacking H285) (domain or fragment, Escherichia coli, UniProt P0AC23 1-284, looked up)
chain: MKADNPFDLLLPAAMAKVAEEAGVYKATKHPLKTFYLAITAGVFISIAFVFYITATTGTGTMPFGMAKLVGGICFSLGLILCVVCGADLFTSTVLIVVAKASGRITWGQLAKNWLNVYFGNLVGALLFVLLMWLSGEYMTANGQWGLNVLQTADHKVHHTFIEAVCLGILANLMVCLAVWMSYSGRSLMDKAFIMVLPVAMFVASGFEHSIANMFMIPMGIVIRDFASPEFWTAVGSAPENFSHLTVMNFITDNLIPVTIGNIIGGGLLVGLTYWVIYLRENDH
notes: FocA, Escherichia coli, stop codon at codon 285 (lacking H285); source: E. coli BL21(DE3) with pfocA5H284, membrane fraction solubilised with DDM, purified (Strep-Tactin-Sepharose); not shown: Strep-tag II, N-terminal, kept
B6: FocA5L279 (FocA truncation variant ending with L279, lacking R280, E281, N282, D283, H284 and H285) (domain or fragment, Escherichia coli, UniProt P0AC23 1-279, looked up)
chain: MKADNPFDLLLPAAMAKVAEEAGVYKATKHPLKTFYLAITAGVFISIAFVFYITATTGTGTMPFGMAKLVGGICFSLGLILCVVCGADLFTSTVLIVVAKASGRITWGQLAKNWLNVYFGNLVGALLFVLLMWLSGEYMTANGQWGLNVLQTADHKVHHTFIEAVCLGILANLMVCLAVWMSYSGRSLMDKAFIMVLPVAMFVASGFEHSIANMFMIPMGIVIRDFASPEFWTAVGSAPENFSHLTVMNFITDNLIPVTIGNIIGGGLLVGLTYWVIYL
notes: FocA, Escherichia coli, stop codon at codon 280 (lacking R280, E281, N282, D283, H284 and H285); also called FocAL279; source: E. coli BL21(DE3) with pfocAL279 (pfocA5L279), membrane fraction solubilised with DDM, purified (Strep-Tactin-Sepharose); not shown: Strep-tag II, N-terminal, kept
B7: FocA5R280 (FocA truncation variant ending with R280, lacking E281, N282, D283, H284 and H285) (domain or fragment, Escherichia coli, UniProt P0AC23 1-280, looked up)
chain: MKADNPFDLLLPAAMAKVAEEAGVYKATKHPLKTFYLAITAGVFISIAFVFYITATTGTGTMPFGMAKLVGGICFSLGLILCVVCGADLFTSTVLIVVAKASGRITWGQLAKNWLNVYFGNLVGALLFVLLMWLSGEYMTANGQWGLNVLQTADHKVHHTFIEAVCLGILANLMVCLAVWMSYSGRSLMDKAFIMVLPVAMFVASGFEHSIANMFMIPMGIVIRDFASPEFWTAVGSAPENFSHLTVMNFITDNLIPVTIGNIIGGGLLVGLTYWVIYLR
notes: FocA, Escherichia coli, stop codon at codon 281 (lacking E281, N282, D283, H284 and H285); also called FocAR280; source: E. coli BL21(DE3) with pfocA5R280, membrane fraction solubilised with DDM, purified (Strep-Tactin-Sepharose); not shown: Strep-tag II, N-terminal, kept

This data set concerns the molecule itself. Briefly: native gel or EMSA; blue-native PAGE, 5-13.5% (w/v polyacrylamide) gradient gel, 5 ug of purified DDM-solubilised FocA variant per lane.
For B1, the stoichiometry N (commonly a count of units in the complex or per binding partner) was 5 and 10.
Next, B2: 5; B3: 5.
Next, B4: 10 and 5.
In the case of B5, the “stoichiometry N” value is 10 and 5.
In the case of B6 it was 5 and 10; in that of B7, 10 and 5.
